The nanobody polyreactivity screen of Harvey et al. (2022)

test: yeast display, Sf9 membrane polyspecificity reagent, FACS + sequencing; frameworks hold sequencing errors
Procedure, shortened: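 In a synthetic yeast display library (Saccharomyces cerevisiae BJ5465), nanobody expression was induced with galactose for 36–48 hours. FACS gates were set low and high (top ~1%) using anti-HA fluorescence for expression and streptavidin fluorescence for binding of the Sf9 membrane reagent. Each polyreactivity label is drawn from the gate of origin.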

With “QVQLVESGGGLVQAGGSLRLSCAASGSTFAWYDMGWYRQAPGKEREFVAAIDYGGGSTYADSVKGRFTISRDNAKNTVYLQMNSLKPEDTAVYYCNADNWVYLYDYWGQGTQVTVSS” as the sequence, how does the “polyreactivity (PSR sort gate)” value read?
The value was “low polyreactivity”.

For “QVQLVESGGGLVQAGGSLRLSCAASGSTFAYNAKGWYRQAPGKERELTNYADSVKGRFTISRDNAKNTVYLQMNSLKPEDNAVYYCIAQIDFGVPDKRAWGYDYWGQGTQVTVSS”, which “polyreactivity (PSR sort gate)” value is on record?
The value was “low polyreactivity”.

Which “polyreactivity (PSR sort gate)” value does the source give for “QVQLVESGGGLVQAGGSLRLSCAASGSTFAYNAMGWYRQAPGKERELVATMSYSGGTTDYADSVKGRFTISRDNAKNTVYLQMNSLKPEDTAVYYCNADHLTWGGWGIRKYDYWGQGTQVTVSS” here?
The value was “high polyreactivity”.

With “QVQLVESGGGLVQAGGSLRLSCAASGSTFAYNAMGWYRQAPGNERELVAAISFTGDSTYYADSVKGRFTISRDNAKNTVYLQMNSLKPEDTRTSPVLSYDYWGQGTLVTVSS” as the sequence, how does the “polyreactivity (PSR sort gate)” value read?
Its value is “low polyreactivity”.

For “QVQLVESGGGLVQAGGSLRLSCAASGSTFAYNDMGWYRLAPGKERELVADIRSGGNTNYADSVKGRFTISRDNAKNTVYLQMNSLKPEDTAVYYCATDGYRIDVYHPDYRYDYWGQGTQVTVSS”, which “polyreactivity (PSR sort gate)” value is on record?
The value was “low polyreactivity”.

With “QVQLVESGGGLVQAGGSLRLSCAASGSTFAYYAMGWYRQAPGKERELVASISWRGGSTYYADSVKGRFTNSRDNAKNTVYLQMNSLKPEDTAVYYCAAGRFYIWSRSQEYDYWGQGTQVTVSS” as the sequence, how does the “polyreactivity (PSR sort gate)” value read?
Its value is “low polyreactivity”.

Which “polyreactivity (PSR sort gate)” value does the source give for “QVQLVESGGGLVQAGGSLRLSCAASGSTFAYYDMGRYRPAPGKERELVAAITIDGRTSYADSVKGRFTISRDNAMNTVYLQMNSLKPEDTAVYYCNTEIRLSKYDYWGQGTQVTVSS” here?
Its value is “low polyreactivity”.

Which “polyreactivity (PSR sort gate)” value does the source give for “QVQLVESGGGLVQAGGSLRLSCAASGSTFCRNAMGWYRQAPGKERELVAAISRRGGSTYYADSVKGRFTISRDNAKNTVYLQMTSLKPEDTAVYYCYRDSSYKHNYDYWAQGTQVTVSS” here?
The value was “high polyreactivity”.

Which “polyreactivity (PSR sort gate)” value does the source give for “QVQLVESGGGLVQAGGSLRLSCAASGSTFDANAMGWYRQAPGKERELVARMSRSTGSTYYADSVKGRFTISRDTAMNSVYLQLNSLKPVDTAVYYCAKVSRASNKYGYWGQGTQVTVSS” here?
Its value is “high polyreactivity”.

With “QVQLVESGGGLVQAGGSLRLSCAASGSTFDAYAMGWYIQAPGKERELVAAITNGGSTNYADSVKGRFTISRDNAKNTVYLQMNSLQPEDTAVYYCNAQHRTVRGIFGRFNYWGQGTQVTVSS” as the sequence, how does the “polyreactivity (PSR sort gate)” value read?
The value was “low polyreactivity”.

With “QVQLVESGGGLVQAGGSLRLSCAASGSTFDAYAMGWYRQAPGKERELVAAITNAGSTNYADSVKGRFTISRDNAKNTVYLQMNSLKPEDTAVYYCATDWYHRYLDGRYDYWGQGTQVTVSS” as the sequence, how does the “polyreactivity (PSR sort gate)” value read?
The value was “low polyreactivity”.

For “QVQLVESGGGLVQAGGSLRLSCAASGSTFDDNAMGGYREAPRKERELVAGISDGDDSTNYADSVKGRFTISRDNAKNTVYLQMNSLTPEDTEVYFCNARYVRTYGVRFGYDYWGQGTQVTVSS”, which “polyreactivity (PSR sort gate)” value is on record?
The value was “low polyreactivity”.

Which “polyreactivity (PSR sort gate)” value does the source give for “QVQLVESGGGLVQAGGSLRLSCAASGSTFDDNAMGWYRQAPGKDRELVAGISTNGGSTSYADSVKGRFTISRDNAKNTVYLPMNSLKPEDTAVYYCAKGLYVQFDYWGQGTQVTVSS” here?
Its value is “low polyreactivity”.

With “QVQLVESGGGLVQAGGSLRLSCAASGSTFDDYDMGWYRQAPGKEREFVATIDWSGGSTYYADSVKGRFTNSRDNAKNTVYLQMNSLKPEDTAVYYCTALRYVVYFDDDYWGQGTQVTVSS” as the sequence, how does the “polyreactivity (PSR sort gate)” value read?
The value was “high polyreactivity”.

For “QVQLVESGGGLVQAGGSLRLSCAASGSTFDDYVMGWYRQAPGKERELVAGINSRGTSTDYADSVKGRFTISRDNAKNTVYLQMNSLIPEDTAVYYCAADDSHGYDYWGQGTQVTVSS”, which “polyreactivity (PSR sort gate)” value is on record?
Its value is “low polyreactivity”.

With “QVQLVESGGGLVQAGGSLRLSCAASGSTFDGNAMGWYRQAPGKDRELVAAITWRDGSPSYADSVKGRFTISRDNAKNTVYLQMNSLKPEDTAVYYCNADPGYLDEEYWGQGTQVTVSS” as the sequence, how does the “polyreactivity (PSR sort gate)” value read?
Its value is “low polyreactivity”.

For “QVQLVESGGGLVQAGGSLRLSCAASGSTFDGNAMGWYRQAPGKERELVAAITYTTSSTYYADSVKGRFTISRDNAKNTVYLQMTSLKPEDTAVYYWGQGTQVTVSS”, which “polyreactivity (PSR sort gate)” value is on record?
Its value is “low polyreactivity”.
